This note sets out measurements from US20070249813A1.

Assay [1] addresses recombinant human TNFα (human) (UniProt P01375). The assay can be described thus: cell-based or functional assay.
The target in assay [2] is biotinylated recombinant human TNFα (human) (UniProt P01375). The assay can be described thus: SPR (BIAcore), [Ab] 3 nM over immobilized biotinylated rhTNFα. A general note: In SPR one partner is held on a chip, and binding of the other changes the refractive index at the surface.
For assay [3] the target is unchanged. Briefly: SPR (BIAcore), [Ab] 6 nM over immobilized biotinylated rhTNFα.
Assay [4] shares this target. Briefly: SPR (BIAcore), [Ab] 13 nM over immobilized biotinylated rhTNFα.
For assay [5] the target is unchanged. Briefly: SPR (BIAcore), [Ab] 25 nM over immobilized biotinylated rhTNFα.
Assay [6] shares this target. The assay can be described thus: SPR (BIAcore), [Ab] 50 nM over immobilized biotinylated rhTNFα.
Assay [7] has the same target. The assay can be described thus: SPR (BIAcore), [Ab] 100 nM over immobilized biotinylated rhTNFα.
For assay [8] the target is unchanged. Briefly: SPR (BIAcore), [Ab] 200 nM over immobilized biotinylated rhTNFα.
For assay [9] the target is unchanged. Briefly: SPR (BIAcore), [Ab] 400 nM over immobilized biotinylated rhTNFα.
For assay [10] the target is unchanged. The assay can be described thus: summary table of binding properties for hTNFα (assay not named there).

Sequence of biotinylated recombinant human TNFα (human) (P01375 77-233 limits assumed): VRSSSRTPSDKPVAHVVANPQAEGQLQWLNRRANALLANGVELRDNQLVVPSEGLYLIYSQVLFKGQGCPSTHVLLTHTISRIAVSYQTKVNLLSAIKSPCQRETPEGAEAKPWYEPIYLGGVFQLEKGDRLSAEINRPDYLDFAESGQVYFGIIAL
Sequence of recombinant human TNFα (human) (P01375 77-233 limits assumed): as above

A word on the Kd: it is the equilibrium constant for the complex coming apart. In the case of MAK 195 F(ab′)2 fragment (antibody), the IC50, neutralization of TNFα-induced L929 cytotoxicity in assay [1] came to 0.062 nM. The Ab, bound, RUs amounted to 231 RU in assay [2]; 433 RU in assay [3]; 708 RU in assay [4]; 957 RU in assay [5]; 1110 RU in [6]; 1140 RU in assay [7]. For the same substance, the Ab, bound, RUs worked out at 1080 RU in [8] and 881 RU in assay [9]. Further, in [10], the Kd is 0.46 nM. In addition, in [10], the Stoichiometry came to 1.4.
